Measured values taken from patent US20170174769A1 (Regeneron, published 2017).
“And” between values parts separate entries of the source, which are not always exact repeats. Equal entries are not always repeated. Where two headings read alike, the source gives them in different places.

T1: recombinant cynomolgus monkey FGF21 with an N-terminal hexahistidine tag (cynomolgus monkey)
T1 construct: also called His6-MfFGF21; mfFGF21
T1 chain: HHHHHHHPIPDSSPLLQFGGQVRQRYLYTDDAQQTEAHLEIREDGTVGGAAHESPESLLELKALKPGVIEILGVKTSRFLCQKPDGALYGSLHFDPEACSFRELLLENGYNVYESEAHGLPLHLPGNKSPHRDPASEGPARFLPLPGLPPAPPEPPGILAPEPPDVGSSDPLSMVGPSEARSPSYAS

T2: biotinylated human FGF21 expressed with a N-terminal hexahistidine tag (human, UniProt Q9NSA1 29-209, biotinylated (site not stated))
T2 construct: also called biotin-6His-hFGF21; biotin 6His-hFGF21
T2 sequence: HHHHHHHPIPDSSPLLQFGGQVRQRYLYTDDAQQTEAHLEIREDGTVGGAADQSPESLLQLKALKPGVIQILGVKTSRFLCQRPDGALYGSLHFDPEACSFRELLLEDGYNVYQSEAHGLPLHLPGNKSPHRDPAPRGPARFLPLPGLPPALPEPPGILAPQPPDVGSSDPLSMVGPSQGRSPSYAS

T3: mouse FGF21 (mouse, UniProt Q9JJN1 29-210)
T3 construct: also called mFGF21 (Prospec, # CYT-339)
T3 sequence (looked up): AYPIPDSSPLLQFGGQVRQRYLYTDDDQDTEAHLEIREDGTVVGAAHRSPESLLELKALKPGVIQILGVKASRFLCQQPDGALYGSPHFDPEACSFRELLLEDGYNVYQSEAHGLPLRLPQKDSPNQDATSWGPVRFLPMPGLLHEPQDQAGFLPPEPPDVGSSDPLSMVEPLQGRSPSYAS

T4: rat FGF21 (rat, UniProt A0A7U3JW68 29-208)
T4 sequence: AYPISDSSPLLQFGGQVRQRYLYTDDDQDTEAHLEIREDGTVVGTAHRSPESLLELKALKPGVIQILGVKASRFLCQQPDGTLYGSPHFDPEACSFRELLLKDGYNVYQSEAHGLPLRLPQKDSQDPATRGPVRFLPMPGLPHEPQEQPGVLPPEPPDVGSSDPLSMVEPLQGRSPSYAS

B1: recombinant human FGF21 expressed with an N-terminal hexahistidine tag (ligand)
chain: HHHHHHHPIPDSSPLLQFGGQVRQRYLYTDDAQQTEAHLEIREDGTVGGAADQSPESLLQLKALKPGVIQILGVKTSRFLCQRPDGALYGSLHFDPEACSFRELLLEDGYNVYQSEAHGLPLHLPGNKSPHRDPAPRGPARFLPLPGLPPALPEPPGILAPQPPDVGSSDPLSMVGPSQGRSPSYAS

Columns and labels:
[1] = target: B1; experiment: cell-based or functional assay
[2] = target: B1; experiment: SPR Biacore 4000, mAb captured, 25 C
Experimental: (§1) Antibodies were captured on a goat anti-mouse IgG polyclonal antibody (GE Healthcare, BR-1008-38) surface created through direct amine coupling of the anti-IgG antibodies to a Biacore CM5 sensor chip. Kinetic experiments were carried out using HBS-EP (10 mM HEPES, 150mM NaCl, 3 mM EDTA, 0.05% Surfactant P20, pH 7.4) as both the running buffer and the sample buffer. […] Antibody-antigen association was monitored for 180 seconds while dissociation in buffer was monitored for 300 seconds. Kinetic association (kₐ) and dissociation (kd) rate constants were determined by processing and fitting the data using Scrubber software version 2.0c. Binding dissociation equilibrium constants (KD) and dissociative half-lives (t_{1/2}) were calculated from the kinetic rate constants as: KD =kd/kₐ and t112 =In(2)/kd.

[3] = target: T1, recombinant cynomolgus monkey FGF21 …; experiment: SPR Biacore 4000, mAb captured, 25 C
Experimental: as §1

[4] = target: B1; experiment: SPR Biacore 4000, mAb captured, 37 C
Experimental: as §1

[5] = target: T1, recombinant cynomolgus monkey FGF21 …; experiment: SPR Biacore 4000, mAb captured, 37 C
Experimental: as §1

[6] = target: T2, biotinylated human FGF21 expressed with …; experiment: competition ELISA: mAb blocks 300 pM biotin-6His-hFGF21 binding to coated hKLB-10his
Experimental: The ability of anti-FGF21 antibodies to block human FGF21 binding to a cognate binding partner human klotho beta was evaluated with an ELISA-based immunoassay. Briefly, human klotho beta (hKLB-10his; R&D systems, #5889-KB-050) was coated at 2μg/mL on a 96-well plate in PBS buffer overnight at 4° C. […] The equilibrated sample solutions were then transferred to hKLB-10his-coated plates. […] Samples were developed with a TMB solution to produce a colorimetric reaction and then neutralized with 1M sulfuric acid before measuring absorbance at 450 nm on a Victor plate reader. Data analysis was performed using a sigmoidal dose-response model within Prism™ software (GraphPad).
The absorbance values of the wells containing the highest concentration for each antibody were used to determine the percent maximum blockade.

mouse FGF21 = target: T3, mouse FGF21; experiment: not described
rat FGF21 = target: T4, rat FGF21; experiment: not described
[7] = target: T5, human KLB and human FGFR1c co-expressed on HEK293/hKLB/hFGFR1c/SRE-luc cells (human, UniProt Q86Z14 1-1044; P11362 22-822); experiment: cell-based or functional assay
T5 sequence (Q86Z14 whole entry, chain 1 of 2): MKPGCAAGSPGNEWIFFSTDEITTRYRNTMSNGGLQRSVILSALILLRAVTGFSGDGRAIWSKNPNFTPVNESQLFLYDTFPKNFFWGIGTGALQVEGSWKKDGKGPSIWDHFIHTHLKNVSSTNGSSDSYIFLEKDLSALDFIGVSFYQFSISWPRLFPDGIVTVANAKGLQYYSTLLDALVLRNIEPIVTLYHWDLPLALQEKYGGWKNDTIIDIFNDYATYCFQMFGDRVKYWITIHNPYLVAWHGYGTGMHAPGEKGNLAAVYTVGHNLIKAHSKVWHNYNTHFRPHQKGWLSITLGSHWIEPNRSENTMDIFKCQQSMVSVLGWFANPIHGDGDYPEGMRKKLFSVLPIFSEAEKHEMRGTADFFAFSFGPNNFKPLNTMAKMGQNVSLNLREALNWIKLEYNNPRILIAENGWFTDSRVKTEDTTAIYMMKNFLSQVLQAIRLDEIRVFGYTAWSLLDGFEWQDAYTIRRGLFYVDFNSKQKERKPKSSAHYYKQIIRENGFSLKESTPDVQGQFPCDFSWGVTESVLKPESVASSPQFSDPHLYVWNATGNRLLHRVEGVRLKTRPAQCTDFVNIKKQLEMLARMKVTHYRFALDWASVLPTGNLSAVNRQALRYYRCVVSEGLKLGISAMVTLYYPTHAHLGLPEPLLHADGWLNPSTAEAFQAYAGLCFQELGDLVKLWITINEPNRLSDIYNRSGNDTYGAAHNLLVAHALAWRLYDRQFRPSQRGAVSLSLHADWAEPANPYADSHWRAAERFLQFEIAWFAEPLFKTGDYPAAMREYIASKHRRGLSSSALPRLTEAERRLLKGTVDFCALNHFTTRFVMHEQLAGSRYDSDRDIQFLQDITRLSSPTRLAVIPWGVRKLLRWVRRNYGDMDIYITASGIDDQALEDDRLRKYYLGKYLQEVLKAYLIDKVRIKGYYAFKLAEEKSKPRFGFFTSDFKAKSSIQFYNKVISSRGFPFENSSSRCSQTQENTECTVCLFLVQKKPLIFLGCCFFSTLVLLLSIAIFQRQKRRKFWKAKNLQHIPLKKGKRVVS
T5 sequence (P11362 other isoform, or with tags, fused parts or gaps limits assumed, chain 2 of 2): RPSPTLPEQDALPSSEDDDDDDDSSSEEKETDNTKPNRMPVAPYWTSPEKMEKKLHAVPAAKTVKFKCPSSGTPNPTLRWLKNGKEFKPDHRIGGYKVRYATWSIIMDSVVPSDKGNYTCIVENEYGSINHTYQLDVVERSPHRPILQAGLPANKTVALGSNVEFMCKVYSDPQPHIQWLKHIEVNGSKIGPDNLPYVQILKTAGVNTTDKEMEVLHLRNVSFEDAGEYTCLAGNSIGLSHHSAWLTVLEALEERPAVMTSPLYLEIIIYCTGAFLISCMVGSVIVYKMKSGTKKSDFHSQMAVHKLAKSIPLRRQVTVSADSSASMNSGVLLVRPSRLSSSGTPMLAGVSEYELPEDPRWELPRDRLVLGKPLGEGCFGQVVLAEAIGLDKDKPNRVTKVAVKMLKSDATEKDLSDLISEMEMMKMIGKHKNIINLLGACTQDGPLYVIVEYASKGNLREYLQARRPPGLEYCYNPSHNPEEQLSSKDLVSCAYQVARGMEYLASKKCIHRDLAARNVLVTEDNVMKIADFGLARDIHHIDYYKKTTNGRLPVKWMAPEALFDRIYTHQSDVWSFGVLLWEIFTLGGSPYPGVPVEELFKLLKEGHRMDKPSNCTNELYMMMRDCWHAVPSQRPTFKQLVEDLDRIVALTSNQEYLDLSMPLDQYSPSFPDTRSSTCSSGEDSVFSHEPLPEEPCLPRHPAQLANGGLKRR

[8] = target: mouse KLB and mouse FGFR1c co-expressed on HEK293/mKLB/mFGFR1c/SRE-Luc cells (mouse); experiment: cell-based or functional assay
[9] = target: T5, human KLB and human FGFR1c co-expressed …; experiment: cell-based or functional assay; remark: listed apart in the source
[10] = target: T5, human KLB and human FGFR1c co-expressed …; experiment: cell-based or functional assay; remark: listed apart in the source
[11] = target: T6, cell-surface human FGFR1c (amino acids 1-731 of NP_075594) with cell-surface human KLB on … (human, UniProt P11362 22-822); experiment: cell-based or functional assay
T6 sequence (P11362 22-822, chain 1 of 2): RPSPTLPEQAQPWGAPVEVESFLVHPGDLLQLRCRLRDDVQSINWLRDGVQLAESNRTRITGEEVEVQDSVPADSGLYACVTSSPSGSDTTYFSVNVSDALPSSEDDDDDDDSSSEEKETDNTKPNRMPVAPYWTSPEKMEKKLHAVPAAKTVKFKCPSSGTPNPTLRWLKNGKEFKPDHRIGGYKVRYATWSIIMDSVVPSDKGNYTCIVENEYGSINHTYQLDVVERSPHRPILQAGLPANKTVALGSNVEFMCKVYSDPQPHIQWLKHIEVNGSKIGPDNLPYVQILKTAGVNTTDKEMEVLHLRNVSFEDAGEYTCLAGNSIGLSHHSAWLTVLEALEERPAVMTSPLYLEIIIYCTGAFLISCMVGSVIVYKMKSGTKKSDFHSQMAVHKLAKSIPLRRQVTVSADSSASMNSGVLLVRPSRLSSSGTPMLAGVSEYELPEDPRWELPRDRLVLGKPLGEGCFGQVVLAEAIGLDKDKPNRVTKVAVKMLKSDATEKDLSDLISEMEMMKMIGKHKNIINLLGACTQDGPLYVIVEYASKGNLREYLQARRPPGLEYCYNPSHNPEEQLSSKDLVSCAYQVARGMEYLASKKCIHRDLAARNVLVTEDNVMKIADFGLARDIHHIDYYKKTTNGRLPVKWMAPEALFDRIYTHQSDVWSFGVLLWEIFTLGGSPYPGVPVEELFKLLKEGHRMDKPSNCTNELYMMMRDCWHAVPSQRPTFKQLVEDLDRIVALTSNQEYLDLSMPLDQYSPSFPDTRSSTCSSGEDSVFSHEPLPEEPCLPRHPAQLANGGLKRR
T6 sequence (chain, as listed by the source, chain 2 of 2): as the sequence (Q86Z14 whole entry, chain 1 of 2) above

[12] = target: T6, cell-surface human FGFR1c (amino acids …); experiment: cell-based or functional assay; remark: listed apart in the source

IC50, inhibition of 1 nM FGF21 activation of 293/hKLB/FGFR1c/SRE-Luc cells [1] [nM] | Kd [2] [nM] | koff [2] [s⁻¹] | kon [2] [M⁻¹ s⁻¹] | t1/2 [2] [min] | Kd [3] [nM] | koff [3] [s⁻¹] | kon [3] [M⁻¹ s⁻¹] | t1/2 [3] [min] | Kd [4] [nM] | koff [4] [s⁻¹] | kon [4] [M⁻¹ s⁻¹] | t1/2 [4] [min] | Kd [5] [nM] | koff [5] [s⁻¹] | kon [5] [M⁻¹ s⁻¹] | t1/2 [5] [min] | % Blocking at 100 nM Antibody Concentration [6] [%] | IC50 [6] [nM] | binding result (mouse FGF21) | Binder | also measured
9.1 | 26.6 | 0.00297 | 111000 | 3.9 | 47.6 | 0.00316 | 66000 | 3.7 | 58.9 | 0.0139 | 236000 | 0.8 | 109 | 0.0142 | 130000 | 0.8 | 31 | > 100 |  | H2M6509N (antibody, V domains shown, mouse IgG2 Fc (H2M prefix); also called H2aM6509N) VH: EVQLVESGGGLVKPGGSLRLSCAASGFTFSNAWMSWVRQAPGKGLDWVGRIKNKLDGGTTDYAAPVKGRFTISRDDSKNTLYLQMNSLKTEDTAVYYCTTDHGWNYYYGMDVWGQGTTVTVSS VL: DIQMTQSPSSLSASVGDRVTITCRASQDISNYLAWFQHKPGKAPKSLIYAASSLQGGVPSKFSGSGSGTDFTLTISSLQPEDFATYYCQQYNTYPPTFGAGTKVEIK | 
1.3 |  |  |  |  |  |  |  |  |  |  |  |  |  |  |  |  | 34 | > 100 | no binding | H4H6879P (antibody, V domains shown, human IgG4 Fc (H4H prefix)) VH: QVQLQESGPGLVKPSETLSLTCTVSGGSISGYYWSWIRQPPGKGLEWIGYFYNSGSTNYNPSLKSRVTMSVDTSKNQFSLRLTSVTAADTAVYYCTRERELLYFDYWGQGTLVTVSS VL: not shown | binding result (rat FGF21): no binding
1 | 2.3 | 0.00197 | 860000 | 5.9 | 37.2 | 0.0237 | 640000 | 0.5 | 4.4 | 0.00549 | 1.25e+06 | 2.1 | 64 | 0.053 | 820000 | 0.2 | 64 |  |  | H2M6504N (antibody, V domains shown, mouse IgG2 Fc (H2M prefix); also called H2aM6504N) VH: EVHLVESGGGLVQPGRSLRLSCVASGFTFDDYAMHWVRQVPGKGLEWVSVITWNSGSIGYADSVKGRFTISRDNAKNSLFLQVSSLRAEDTALYYCAKGISPTGTTPDYWGQGTLVTVSS VL: not shown | 
 |  |  |  |  |  |  |  |  |  |  |  |  |  |  |  |  |  |  | no binding | H4H6504N (antibody, V domains shown, 6504N variable domains on human IgG4 Fc (H4H prefix)) VH: EVHLVESGGGLVQPGRSLRLSCVASGFTFDDYAMHWVRQVPGKGLEWVSVITWNSGSIGYADSVKGRFTISRDNAKNSLFLQVSSLRAEDTALYYCAKGISPTGTTPDYWGQGTLVTVSS VL: not shown | binding result (rat FGF21): no binding
 |  |  |  |  |  |  |  |  |  |  |  |  |  |  |  |  |  |  |  | B1 | EC50, SRE-luc activation by ligand [7]: 1.9 nM; EC50, SRE-luc activation [8]: 0.41 nM; EC50, SRE-luc activation by ligand [9]: 0.73 nM and 1.4 nM; EC50, SRE-luc activation by ligand [10]: 2.4 nM and 2.2 nM; % Activation [11]: 100%; EC50, SRE-luc activation [11]: 1.1 nM; % Activation [12]: 100%; EC50, SRE-luc activation [12]: 1.4 nM
0.5 |  |  |  |  |  |  |  |  |  |  |  |  |  |  |  |  | 8 |  | no binding | H4H6915P (antibody, V domains shown, human IgG4 Fc (H4H prefix)) VH: QVQLVESGGGVVQPGRSLRLSCAASGFTFSSYVMHWVRQAPGKGLEWVSVISYDGGNKYYADSVKGRFTISRDNSKNTLDLQMNSLRAEDTAVYYCAKEDDYIWGGFFDLWGRGTLVTVSS VL: DIQMTQSPSSLSASVGDRVTITCRASQGIRNDLGWYQKKPGKAPKRLISAAYSLQSGVTSRFSGSGSGTEFTLTISSLQPEDFATYYCLQHNSYPWTFGQGTKVEIK | binding result (rat FGF21): no binding
11 | 19.2 | 0.00669 | 349000 | 1.7 | 23.2 | 0.00578 | 250000 | 2 | 41.1 | 0.0212 | 516000 | 0.5 | 46.5 | 0.015 | 323000 | 0.8 | 98 | 0.076 |  | H2M6499N (antibody, V domains shown, human variable domains, mouse IgG2 Fc (H2M prefix); also called H2aM6499N) VH: QVHLVQSGAEVKKPGASVKVSCKASGYSFTDYYVHWVRQAPGQGLEWMGWFNPKSGDTNSVQKFQGRVSMTGDTSITTAYLDLRRLTSDDTAVYYCGRSGYFDFWGQGTLVTVSS VL: DVVMTQSPLSLSVTLGQPASISCRSSQSLVFSDGNTFLNWFQQRPGQSPRRLIYNLSNRDSGVPDRFSGSGSGTDFTLKISGVEAEDVGVYYCMQGTHWPLTFGGGTKVEIK | 
